Test results: PMC3278721 (Molecular Cell, 2012)

T1: Maltose Binding Protein fused to ROS1 full-length (MBP-ROS1) (Arabidopsis, UniProt Q9SJQ6 1-1393)
T1 sequence (looked up): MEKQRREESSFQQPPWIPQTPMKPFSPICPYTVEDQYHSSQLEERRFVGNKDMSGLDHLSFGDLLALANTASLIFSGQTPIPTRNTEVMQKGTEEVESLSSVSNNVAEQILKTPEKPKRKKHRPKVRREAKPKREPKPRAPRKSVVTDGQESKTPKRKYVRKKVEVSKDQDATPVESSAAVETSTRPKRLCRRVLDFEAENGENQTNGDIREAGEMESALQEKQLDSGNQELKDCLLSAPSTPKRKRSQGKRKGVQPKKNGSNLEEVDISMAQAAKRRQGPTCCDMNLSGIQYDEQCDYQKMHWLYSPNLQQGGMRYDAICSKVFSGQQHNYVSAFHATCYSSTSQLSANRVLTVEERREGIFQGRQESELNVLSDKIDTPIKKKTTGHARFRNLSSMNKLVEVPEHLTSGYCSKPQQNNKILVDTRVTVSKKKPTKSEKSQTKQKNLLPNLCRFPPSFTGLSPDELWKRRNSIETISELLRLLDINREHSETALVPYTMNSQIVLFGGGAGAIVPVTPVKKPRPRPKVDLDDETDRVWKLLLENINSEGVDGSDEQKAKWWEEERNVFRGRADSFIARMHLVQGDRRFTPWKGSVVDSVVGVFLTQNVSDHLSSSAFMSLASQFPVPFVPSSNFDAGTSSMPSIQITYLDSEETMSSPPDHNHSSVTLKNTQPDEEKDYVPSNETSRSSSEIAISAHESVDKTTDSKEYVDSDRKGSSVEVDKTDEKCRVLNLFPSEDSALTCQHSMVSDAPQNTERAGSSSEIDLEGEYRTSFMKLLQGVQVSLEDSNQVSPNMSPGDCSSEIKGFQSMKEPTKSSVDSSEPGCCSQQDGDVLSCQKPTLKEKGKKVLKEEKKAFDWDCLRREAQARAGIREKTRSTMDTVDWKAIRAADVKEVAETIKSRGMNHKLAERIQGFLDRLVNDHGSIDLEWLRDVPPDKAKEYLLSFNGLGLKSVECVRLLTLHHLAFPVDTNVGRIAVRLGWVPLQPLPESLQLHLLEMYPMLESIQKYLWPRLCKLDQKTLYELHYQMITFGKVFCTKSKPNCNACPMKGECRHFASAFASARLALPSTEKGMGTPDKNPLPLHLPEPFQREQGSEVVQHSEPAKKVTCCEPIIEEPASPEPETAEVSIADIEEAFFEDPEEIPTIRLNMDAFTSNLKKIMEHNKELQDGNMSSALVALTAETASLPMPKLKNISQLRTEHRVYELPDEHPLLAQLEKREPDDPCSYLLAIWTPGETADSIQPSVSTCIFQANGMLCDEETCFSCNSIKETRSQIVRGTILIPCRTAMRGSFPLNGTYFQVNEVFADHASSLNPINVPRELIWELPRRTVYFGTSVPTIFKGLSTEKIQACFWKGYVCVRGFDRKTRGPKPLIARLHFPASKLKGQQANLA

T2: Purified full-length ROS1 fused to His6-tag (FL-ROS1) (Arabidopsis, UniProt Q9SJQ6 1-1393)
T2 sequence (looked up): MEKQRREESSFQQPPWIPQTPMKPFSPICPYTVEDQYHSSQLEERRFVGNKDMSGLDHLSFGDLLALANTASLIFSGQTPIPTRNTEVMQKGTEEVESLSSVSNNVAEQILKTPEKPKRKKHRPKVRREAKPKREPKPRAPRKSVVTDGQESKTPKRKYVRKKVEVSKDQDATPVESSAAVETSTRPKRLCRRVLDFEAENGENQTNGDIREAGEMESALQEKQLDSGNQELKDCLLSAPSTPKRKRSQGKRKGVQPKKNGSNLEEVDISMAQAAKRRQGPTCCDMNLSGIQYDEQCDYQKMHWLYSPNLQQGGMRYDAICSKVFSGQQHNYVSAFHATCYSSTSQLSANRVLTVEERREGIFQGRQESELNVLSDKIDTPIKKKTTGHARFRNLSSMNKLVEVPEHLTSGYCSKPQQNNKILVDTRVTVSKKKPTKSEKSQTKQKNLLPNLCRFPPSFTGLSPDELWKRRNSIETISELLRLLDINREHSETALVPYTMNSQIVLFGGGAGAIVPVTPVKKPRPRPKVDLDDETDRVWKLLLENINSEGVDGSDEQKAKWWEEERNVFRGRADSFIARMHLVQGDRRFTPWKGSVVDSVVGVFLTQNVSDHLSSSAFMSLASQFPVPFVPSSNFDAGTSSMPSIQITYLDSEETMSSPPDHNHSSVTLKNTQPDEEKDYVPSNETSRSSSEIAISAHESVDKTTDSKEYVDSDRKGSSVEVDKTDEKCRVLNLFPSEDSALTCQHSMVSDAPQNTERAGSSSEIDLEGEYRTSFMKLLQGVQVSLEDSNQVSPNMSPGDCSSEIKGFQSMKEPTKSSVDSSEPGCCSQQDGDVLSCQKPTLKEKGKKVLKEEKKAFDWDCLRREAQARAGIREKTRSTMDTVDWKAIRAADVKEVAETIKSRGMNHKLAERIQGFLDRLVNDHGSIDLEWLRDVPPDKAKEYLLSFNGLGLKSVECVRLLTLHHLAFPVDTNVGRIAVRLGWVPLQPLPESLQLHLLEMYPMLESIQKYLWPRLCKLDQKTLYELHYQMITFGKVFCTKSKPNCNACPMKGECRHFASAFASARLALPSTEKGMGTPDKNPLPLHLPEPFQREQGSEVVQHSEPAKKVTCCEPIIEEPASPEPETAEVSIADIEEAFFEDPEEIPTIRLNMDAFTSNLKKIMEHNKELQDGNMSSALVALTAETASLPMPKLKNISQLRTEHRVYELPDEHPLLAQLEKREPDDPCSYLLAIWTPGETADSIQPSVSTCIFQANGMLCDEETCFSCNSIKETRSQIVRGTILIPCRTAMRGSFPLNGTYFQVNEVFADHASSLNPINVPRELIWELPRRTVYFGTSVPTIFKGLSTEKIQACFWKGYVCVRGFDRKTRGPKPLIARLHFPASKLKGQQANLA


Tests used:
[1] = molecular target: T1, Maltose Binding Protein fused to ROS1 …; assay: pull-down
[2] = molecular target: T2, Purified full-length ROS1 fused to …; assay: pull-down

Row | binding result [1] | binding result [2] | Binder
1 | binds |  | His-tagged ZDP (Arabidopsis thaliana zinc finger DNA 3'-phosphoesterase) (enzyme, UniProt Q84JE8 1-694, looked up) MITVAPFVSLRFQFPLYIINRSTLFFRERTQYLVYNTCHILRTTAKTMPVVAEYAKSNRSSCRSCSNKIAVKSLRLGLISKGRGGVDMTRWHHFDCFPTDSESIASVDDIQGLSALEKEDQDALTKLVEQCGKVPAKKPDEKKGKAKKHIMGPKGLTKAATSSKVIADNAKSSRSSCNRCSQTIVSKDLRVGLVTEDSRGFDITRWHHLGCFPIDFHPIDSVEDIGGYSSLEKGDQMELKYLAEVNKKDKTLIDDVQKMDEGDDEAIADNELTEETKKGKHSPVAKLVEQPGEPAKEDEDEESKKPASDEISEQKTKDVKNSPDSSKVISEYAKSSRSTCKKCSQTIAAKELRLGLVTRNFRGFDMKQWHHLGCFPVDSDPIVSVEDIGGFSELQSGDQDALKELVQQCGKQTLVDKMDEDNDDTEAKIKLTEETNKRKHSEVGEMVEEDESLTKAKQQMAKTHKVNMSESTSQVEVEAEITLSASDVKDKYRDANLLPKWKAFETVIFLERDDGLNDSEKIAAFDFDGCLAKTSVKIVGADAWSLMYPSIPEKLQSLHDQGYKLVIFTNESNIDRWKNKRQAAVDSKIGRLNSFIERVKVPIQVFIACGVSSSGGKGGKDDLYRKPKAGMWQLMKKHFNSGIAIDMDKSFYVGDAAGRKMDHSDADIKFAQASGLKFFTPEEYFIPSSTSPGT
2 |  | binds | MBP-ZDP (enzyme, Arabidopsis thaliana, UniProt Q84JE8 1-694, looked up) MITVAPFVSLRFQFPLYIINRSTLFFRERTQYLVYNTCHILRTTAKTMPVVAEYAKSNRSSCRSCSNKIAVKSLRLGLISKGRGGVDMTRWHHFDCFPTDSESIASVDDIQGLSALEKEDQDALTKLVEQCGKVPAKKPDEKKGKAKKHIMGPKGLTKAATSSKVIADNAKSSRSSCNRCSQTIVSKDLRVGLVTEDSRGFDITRWHHLGCFPIDFHPIDSVEDIGGYSSLEKGDQMELKYLAEVNKKDKTLIDDVQKMDEGDDEAIADNELTEETKKGKHSPVAKLVEQPGEPAKEDEDEESKKPASDEISEQKTKDVKNSPDSSKVISEYAKSSRSTCKKCSQTIAAKELRLGLVTRNFRGFDMKQWHHLGCFPVDSDPIVSVEDIGGFSELQSGDQDALKELVQQCGKQTLVDKMDEDNDDTEAKIKLTEETNKRKHSEVGEMVEEDESLTKAKQQMAKTHKVNMSESTSQVEVEAEITLSASDVKDKYRDANLLPKWKAFETVIFLERDDGLNDSEKIAAFDFDGCLAKTSVKIVGADAWSLMYPSIPEKLQSLHDQGYKLVIFTNESNIDRWKNKRQAAVDSKIGRLNSFIERVKVPIQVFIACGVSSSGGKGGKDDLYRKPKAGMWQLMKKHFNSGIAIDMDKSFYVGDAAGRKMDHSDADIKFAQASGLKFFTPEEYFIPSSTSPGT
